What was measured:
[1] = target: membrane-bound TNFalpha on stably transfected CHO cells (B-220 cells); assay: FACS, beads with CHO-TNFα (B220) cells, Sample 2
[2] = target: membrane-bound TNFalpha on stably transfected CHO cells (B-220 cells); assay: FACS, mixed beads with CHO-TNFα (B220) cells, Sample 4
[3] = target: membrane-bound TNFalpha on stably transfected CHO cells (B-220 cells); assay: FACS, anti-CD19 beads with TNFalpha-transfected CHO cells (FIG. 4, middle panel)

% bound beads [1]: 0.9%
% bound beads [2]: 0.4%
# Events (cells bound to anti-CD19-APC beads) [3]: 6 events
% Parent [3]: 0.1%
% Total [3]: 0.1%
Substance: APC labeled unrelated antibody (anti-CD19), coated on beads
